According to patent publication US20220128561A1 (Bayer, published 2022):
Where two headings read alike, the source gives them in different places.

B1: TPP16284 (antibody, human IgG1, lambda, V domains shown)
VH: EVQLLESGGGLVQPGGSLRLSCAASGFTFSSYAMSWVRQAPGKGLEWVSGVSWNGSRTHYADSVKGRFTISRDNSKNTLYLQMNSLRAEDTAVYYCARERLGKWYFDLWGRGTLVTVSS
VL: QSVLTQPPSASGTPGQRVTISCSGSSSNIGNNAVNWYQQLPGTAPKLLIYGNSNRPSGVPDRFSGSKSGTSASLAISGLRSEDEADYYCQSYDSSLSGVFGGGTKLTVLG
B2: TPP15715 (antibody, human IgG1, lambda, V domains shown)
VH: EVQLLESGGGLVQPGGSLRLSCAASGFTFSNYAMSWVRQAPGKGLEWVSAISGSGGSTFYADSVKGRFTISRDNSKNTLYLQMNSLRAEDTAVYYCATDGTDAFDIWGQGTLVTVSS
VL: QSVLTQPPSASGTPGQRVTISCTGSSSNIGAGYDVHWYQQLPGTAPKLLIYENDRRPSGVPDRFSGSKSGTSASLAISGLRSEDEADYYCAAWDDSLNGPLFGGGTKLTVLG
notes: also called 5H10; TPP15715_5H10

Key:
[1] = biological target: Human apo-sGC (H105F) (human) (UniProt Q02108); test: SPR
Sequence of Human apo-sGC (H105F) (human) (Q02108 whole entry, stated change not applied): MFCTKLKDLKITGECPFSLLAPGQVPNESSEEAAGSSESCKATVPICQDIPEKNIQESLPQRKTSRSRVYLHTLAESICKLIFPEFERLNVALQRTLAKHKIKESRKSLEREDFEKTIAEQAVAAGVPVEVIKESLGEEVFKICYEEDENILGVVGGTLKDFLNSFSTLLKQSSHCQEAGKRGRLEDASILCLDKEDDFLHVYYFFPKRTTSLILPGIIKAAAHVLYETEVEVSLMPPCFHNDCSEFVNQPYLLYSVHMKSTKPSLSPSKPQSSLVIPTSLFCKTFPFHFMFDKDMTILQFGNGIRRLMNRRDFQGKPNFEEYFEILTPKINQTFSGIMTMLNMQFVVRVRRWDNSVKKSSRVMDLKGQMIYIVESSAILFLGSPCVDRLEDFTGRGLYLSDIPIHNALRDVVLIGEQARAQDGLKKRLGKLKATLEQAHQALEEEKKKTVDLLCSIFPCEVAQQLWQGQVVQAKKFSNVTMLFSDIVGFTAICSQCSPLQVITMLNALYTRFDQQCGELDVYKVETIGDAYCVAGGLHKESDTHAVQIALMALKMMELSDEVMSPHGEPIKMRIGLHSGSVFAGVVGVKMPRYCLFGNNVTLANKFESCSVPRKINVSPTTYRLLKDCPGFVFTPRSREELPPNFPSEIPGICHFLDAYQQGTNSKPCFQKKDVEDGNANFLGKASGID

[2] = biological target: rat apo-sGC (H105F) (rat) (UniProt P19686); test: SPR
[3] = biological target: rat apo-sGC (H105F) (rat) (UniProt P19686); test: capture ELISA: IgG coated at 5 ug/mL, rat apo-sGC (H105F) titrated, streptavidin-HRP, OD 450 nm; the axis gives the sGC concentration
[4] = biological target: T1, WT rat sGC heme free (tween treated) (rat, UniProt P19686 1-690; P20595 1-619); test: capture ELISA: IgG coated at 5 ug/mL, tween-treated (heme-free) WT rat sGC titrated, streptavidin-HRP, OD 450 nm; the axis gives the sGC concentration
T1 construct: alpha1-StrepII/beta1 heterodimer made in Sf9 cells and purified; The heme was removed with 0.5% Tween20 for 20 min at 37 C; It has the same polypeptides as the heme-loaded form and differs only in lacking the heme; also called heme free sGC (as obtained by tween treatment); heme free version of wt rat sGC; not shown: C-terminal strep-tag (StrepII)
T1 sequence (looked up) 1: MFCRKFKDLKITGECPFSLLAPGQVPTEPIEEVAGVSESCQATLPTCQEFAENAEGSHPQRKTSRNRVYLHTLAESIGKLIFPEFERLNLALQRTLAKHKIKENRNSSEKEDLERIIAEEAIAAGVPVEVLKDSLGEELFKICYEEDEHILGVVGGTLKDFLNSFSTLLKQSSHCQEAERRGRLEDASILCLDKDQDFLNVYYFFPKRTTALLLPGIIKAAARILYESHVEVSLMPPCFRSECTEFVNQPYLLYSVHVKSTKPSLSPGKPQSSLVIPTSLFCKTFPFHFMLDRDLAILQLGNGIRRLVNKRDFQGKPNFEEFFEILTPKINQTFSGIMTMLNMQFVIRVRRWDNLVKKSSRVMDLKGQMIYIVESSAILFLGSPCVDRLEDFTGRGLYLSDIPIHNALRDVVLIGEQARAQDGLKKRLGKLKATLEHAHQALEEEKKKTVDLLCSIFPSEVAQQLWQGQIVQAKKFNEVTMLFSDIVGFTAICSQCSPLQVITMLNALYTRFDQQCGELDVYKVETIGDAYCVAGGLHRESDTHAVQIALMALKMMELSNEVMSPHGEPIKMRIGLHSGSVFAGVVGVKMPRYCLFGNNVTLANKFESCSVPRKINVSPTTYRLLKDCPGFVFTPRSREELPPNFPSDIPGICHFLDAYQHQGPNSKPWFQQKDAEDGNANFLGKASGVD
T1 sequence (looked up) 2: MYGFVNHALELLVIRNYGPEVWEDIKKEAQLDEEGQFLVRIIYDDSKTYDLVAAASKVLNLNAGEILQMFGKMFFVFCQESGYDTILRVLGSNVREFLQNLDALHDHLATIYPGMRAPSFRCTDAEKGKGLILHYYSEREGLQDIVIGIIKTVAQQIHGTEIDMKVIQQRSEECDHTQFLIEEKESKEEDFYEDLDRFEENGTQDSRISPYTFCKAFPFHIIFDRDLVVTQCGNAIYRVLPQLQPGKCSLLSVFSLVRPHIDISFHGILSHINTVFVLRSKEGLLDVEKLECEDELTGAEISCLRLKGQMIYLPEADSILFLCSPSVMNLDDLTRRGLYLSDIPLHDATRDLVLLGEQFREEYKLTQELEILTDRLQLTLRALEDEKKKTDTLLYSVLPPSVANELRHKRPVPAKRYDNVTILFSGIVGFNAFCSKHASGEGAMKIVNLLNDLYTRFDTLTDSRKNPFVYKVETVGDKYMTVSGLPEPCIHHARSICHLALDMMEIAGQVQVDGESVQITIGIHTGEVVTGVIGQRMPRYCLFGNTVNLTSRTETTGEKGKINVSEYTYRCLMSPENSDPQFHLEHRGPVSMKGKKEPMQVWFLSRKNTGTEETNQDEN
Experimental: (§1) To determine by ELISA the capacity of individual IgGs to discriminate the apo (heme free) version of wt rat sGC from the heme-loaded version, 5 μg/mL of each individual IgG were coated in Nunc® maxisorp 96-well plates overnight at 4° C. After a minimum 16 hours adsorption period, coated maxisorp plates were blocked with PBS-3% skimmed milk (v/v) prior to the addition of purified rat wt sGC proteins previously treated with 0.5% (v/v) tween to remove the heme group, or not-treated thus preserving heme group. Successful entrapment of heme free or heme-loaded wt rat sGC molecules by reformatted IgG molecules was detected with streptavidin-HRP.

[5] = biological target: T1, WT rat sGC heme free (tween treated); test: as above; remark: listed apart in the source
Experimental: as §1

[6] = biological target: T1, WT rat sGC heme free (tween treated); test: SPR

Kd [1] [µM]	Kd [2] [µM]	EC50 (read off the curve) [3] [µM]	EC50 (read off the curve) [4] [µM]	EC50 (read off the curve) [5] [µM]	Kd [6] [µM]	Binder
0.146	0.067	0.07	–	–	–	B1
–	–	–	~0.02	~0.05	0.05	B2
